Tests used:
mice = test: Oral immunogenicity of tomato sNV110-2 powder versus gavaged iNV VLPs; assay type: in vivo, mouse
Method: FIGS. 23A-B show the immunologic response of mice to rNV-transgenic tomato. […] Five mice in each group ingested 1.2 g, 1.5 g or 2.3 g of tomato powder mixed with 0.6 volume of water, on days 1, 4, 17, and 20. One group was gavaged with 100 g iNV VLPs each. Nontransgenic tomato powder was fed to a negative control group. […] Standard errors were calculated on the log-transformed titers.
Three doses of tomato sNV110-2 powder (1.5 gm, 2.5 gm, or 5 gm) were provided on days 1, 4, 17, and 20. The actual doses ingested by each mouse were, on average, 1.2, 1.5 and 2.2 gm each feeding, containing 192, 240, and 352 μg rNV/dose, respectively, or 60, 75, and 1101 g VLPs/dose. Nontransgenic tomato TA234 powder (5 gram per mouse per feed) were given to one control group (−), and 100 μg purified iNV VLPs were orally administered by gavage to another control group (+). Serum and fecal antibodies were measured by ELISA, and GMTs were calculated for each group of mice. All pre-immune serum and fecal samples were negative for rNV-specific IgG and IgA, as were control group (−) (titers<20; the lowest dilution tested). […] No significant difference (p=0.05) in primary titers was observed among groups. […] Intestinal antibody responses reached their peaks at 27 dpi with IgA GMTs ranging from 10681 to 19127. […] In contrast, the control i-rNV gavage group had their maximum levels of IgG GMT=826 and IgA GMT=1748, which were 8.2 and 6.2 fold less than the group that ingested 1.2 gram of sNV110-2 powder (p<0.0183). Further, long-term serum antibody responses declined to baseline in 3 months (IgG GMT=58 at 87 dpi).

[1] = low pH, lyophilized, stored long term at 4° C.; cited from earlier work
[2] = day 11, gavage of purified iNV VLPs (100 μg)

B1: iNV VLPs: purified insect cell (baculovirus) derived recombinant Norwalk virus virus-like particles, control reference antigen (protein)
chain: MMMASKDATSSVDGASGAGQLVPEVNASDPLAMDPVAGSSTAVATAGQVNPIDPWIINNFVQAPQGEFTISPNNTPGDVLFDLSLGPHLNPFLLHLSQMYNGWVGNMRVRIMLAGNAFTAGKIIVSCIPPGFGSHNLTIAQATLFPHVIADVRTLDPIEVPLEDVRNVLFHNNDRNQQTMRLVCMLYTPLRTGGGTGDSFVVAGRVMTCPSPDFNFLFLVPPTVEQKTRPFTLPNLPLSSLSNSRAPLPISSMGISPDNVQSVQFQNGRCTLDGRLVGTTPVSLSHVAKIRGTSNGTVINLTELDGTPFHPFEGPAPIGFPDLGGCDWHINMTQFGHSSQTQYDVDTTPDTFVPHLGSIQANGIGSGNYVGVLSWISPPSHPSGSQVDLWKIPNYGSSITEATHLAPSVYPPGFGEVLVFFMSKMPGPGAYNLPCLLPQEYISHLASEQAPTVGEAALLHYVDPDTGRNLGEFKAYPDGFLTCVPNGASSGPQQLPINGVFVFVSWVSRFYQLKPVGTASSARGRLGLRR
IgA GMT (mice; [2]): 62
IgG GMT (mice; [2]): 18
mice with primary intestinal antibody responses (mice; [2]): 2 of 5
mice with primary serum antibody responses (mice; [2]): 1 of 5
maximum IgA GMT (mice; i-rNV gavage control group): 1748
maximum IgG GMT (mice; i-rNV gavage control group): 826
long-term IgG GMT (mice; i-rNV gavage group, 87 dpi): 58
maximum IgA GMT, fold less than group ingesting 1.2 gram sNV110-2 powder (mice; p<0.0183): 6.2 fold
maximum IgG GMT, fold less than group ingesting 1.2 gram sNV110-2 powder (mice; p<0.0183): 8.2 fold
stability [1]: stable

Source: patent publication US7879338B2, “Vectors and methods for immunization against norovirus using transgenic plants” (Boyce Thompson Institute for Plant Research, priority 2003, dated 2011)
